Source: the Human Domainome abundance scans (Beltran et al. 2025)
± gives the uncertainty stated by the source.

B1: Bromodomain adjacent to zinc finger domain protein 2B, residues 1927 to 1982; numbered along this chain, Q9UIF8 (parent)
chain: KSIMKVYCQICRKGDNEELLLLCDGCDKGCHTYCHRPKITTIPDGDWFCPACIAKA

Variants of: B1
Experiment: abundance fitness (aPCA) (normalised: wild type 0, dead -1); higher = more abundant; growth selection in yeast, the domain comes from the species named
Conditions: Homo sapiens

Variant | abundance fitness
KSIMKVACQICRKGDNEELLLLCDGCDKGCHTYCHRPKITTIPDGDWFCPACIAKA [Y7A] | -0.09 ± 0.073
KSIMKVCCQICRKGDNEELLLLCDGCDKGCHTYCHRPKITTIPDGDWFCPACIAKA [Y7C] | -0.136 ± 0.13
KSIMKVDCQICRKGDNEELLLLCDGCDKGCHTYCHRPKITTIPDGDWFCPACIAKA [Y7D] | 0.142 ± 0.099
KSIMKVECQICRKGDNEELLLLCDGCDKGCHTYCHRPKITTIPDGDWFCPACIAKA [Y7E] | -0.018 ± 0.085
KSIMKVFCQICRKGDNEELLLLCDGCDKGCHTYCHRPKITTIPDGDWFCPACIAKA [Y7F] | -0.086 ± 0.17
KSIMKVGCQICRKGDNEELLLLCDGCDKGCHTYCHRPKITTIPDGDWFCPACIAKA [Y7G] | -0.118 ± 0.067
KSIMKVHCQICRKGDNEELLLLCDGCDKGCHTYCHRPKITTIPDGDWFCPACIAKA [Y7H] | -0.045 ± 0.14
KSIMKVICQICRKGDNEELLLLCDGCDKGCHTYCHRPKITTIPDGDWFCPACIAKA [Y7I] | -0.197 ± 0.18
KSIMKVKCQICRKGDNEELLLLCDGCDKGCHTYCHRPKITTIPDGDWFCPACIAKA [Y7K] | -0.147 ± 0.12
KSIMKVLCQICRKGDNEELLLLCDGCDKGCHTYCHRPKITTIPDGDWFCPACIAKA [Y7L] | -0.14 ± 0.083
KSIMKVMCQICRKGDNEELLLLCDGCDKGCHTYCHRPKITTIPDGDWFCPACIAKA [Y7M] | -0.059 ± 0.097
KSIMKVNCQICRKGDNEELLLLCDGCDKGCHTYCHRPKITTIPDGDWFCPACIAKA [Y7N] | 0.057 ± 0.14
KSIMKVPCQICRKGDNEELLLLCDGCDKGCHTYCHRPKITTIPDGDWFCPACIAKA [Y7P] | -0.179 ± 0.12
KSIMKVQCQICRKGDNEELLLLCDGCDKGCHTYCHRPKITTIPDGDWFCPACIAKA [Y7Q] | -0.043 ± 0.12
KSIMKVRCQICRKGDNEELLLLCDGCDKGCHTYCHRPKITTIPDGDWFCPACIAKA [Y7R] | -0.152 ± 0.065
KSIMKVSCQICRKGDNEELLLLCDGCDKGCHTYCHRPKITTIPDGDWFCPACIAKA [Y7S] | -0.025 ± 0.078
KSIMKVTCQICRKGDNEELLLLCDGCDKGCHTYCHRPKITTIPDGDWFCPACIAKA [Y7T] | -0.102 ± 0.1
KSIMKVVCQICRKGDNEELLLLCDGCDKGCHTYCHRPKITTIPDGDWFCPACIAKA [Y7V] | -0.145 ± 0.071
KSIMKVYAQICRKGDNEELLLLCDGCDKGCHTYCHRPKITTIPDGDWFCPACIAKA [C8A] | -1.25 ± 0.15
KSIMKVYDQICRKGDNEELLLLCDGCDKGCHTYCHRPKITTIPDGDWFCPACIAKA [C8D] | -1 ± 0.16
KSIMKVYEQICRKGDNEELLLLCDGCDKGCHTYCHRPKITTIPDGDWFCPACIAKA [C8E] | -0.836 ± 0.15
KSIMKVYFQICRKGDNEELLLLCDGCDKGCHTYCHRPKITTIPDGDWFCPACIAKA [C8F] | -0.978 ± 0.36
KSIMKVYGQICRKGDNEELLLLCDGCDKGCHTYCHRPKITTIPDGDWFCPACIAKA [C8G] | -0.916 ± 0.073
KSIMKVYHQICRKGDNEELLLLCDGCDKGCHTYCHRPKITTIPDGDWFCPACIAKA [C8H] | -1.02 ± 0.24

Variant | abundance fitness
KSIMKVYIQICRKGDNEELLLLCDGCDKGCHTYCHRPKITTIPDGDWFCPACIAKA [C8I] | -1.34 ± 0.43
KSIMKVYLQICRKGDNEELLLLCDGCDKGCHTYCHRPKITTIPDGDWFCPACIAKA [C8L] | -1.13 ± 0.13
KSIMKVYMQICRKGDNEELLLLCDGCDKGCHTYCHRPKITTIPDGDWFCPACIAKA [C8M] | -0.807 ± 0.34
KSIMKVYNQICRKGDNEELLLLCDGCDKGCHTYCHRPKITTIPDGDWFCPACIAKA [C8N] | -1.11 ± 0.33
KSIMKVYPQICRKGDNEELLLLCDGCDKGCHTYCHRPKITTIPDGDWFCPACIAKA [C8P] | -0.686 ± 0.17
KSIMKVYQQICRKGDNEELLLLCDGCDKGCHTYCHRPKITTIPDGDWFCPACIAKA [C8Q] | -0.661 ± 0.22
KSIMKVYRQICRKGDNEELLLLCDGCDKGCHTYCHRPKITTIPDGDWFCPACIAKA [C8R] | -1.08 ± 0.088
KSIMKVYSQICRKGDNEELLLLCDGCDKGCHTYCHRPKITTIPDGDWFCPACIAKA [C8S] | -0.944 ± 0.11
KSIMKVYTQICRKGDNEELLLLCDGCDKGCHTYCHRPKITTIPDGDWFCPACIAKA [C8T] | -0.902 ± 0.19
KSIMKVYWQICRKGDNEELLLLCDGCDKGCHTYCHRPKITTIPDGDWFCPACIAKA [C8W] | -1.17 ± 0.12
KSIMKVYYQICRKGDNEELLLLCDGCDKGCHTYCHRPKITTIPDGDWFCPACIAKA [C8Y] | -0.942 ± 0.14
KSIMKVYCAICRKGDNEELLLLCDGCDKGCHTYCHRPKITTIPDGDWFCPACIAKA [Q9A] | -0.108 ± 0.076
KSIMKVYCCICRKGDNEELLLLCDGCDKGCHTYCHRPKITTIPDGDWFCPACIAKA [Q9C] | -0.091 ± 0.094
KSIMKVYCDICRKGDNEELLLLCDGCDKGCHTYCHRPKITTIPDGDWFCPACIAKA [Q9D] | 0.028 ± 0.12
KSIMKVYCFICRKGDNEELLLLCDGCDKGCHTYCHRPKITTIPDGDWFCPACIAKA [Q9F] | -0.099 ± 0.15
KSIMKVYCGICRKGDNEELLLLCDGCDKGCHTYCHRPKITTIPDGDWFCPACIAKA [Q9G] | -0.038 ± 0.059
KSIMKVYCIICRKGDNEELLLLCDGCDKGCHTYCHRPKITTIPDGDWFCPACIAKA [Q9I] | -0.164 ± 0.11
KSIMKVYCKICRKGDNEELLLLCDGCDKGCHTYCHRPKITTIPDGDWFCPACIAKA [Q9K] | -0.146 ± 0.13
KSIMKVYCLICRKGDNEELLLLCDGCDKGCHTYCHRPKITTIPDGDWFCPACIAKA [Q9L] | -0.103 ± 0.077
KSIMKVYCMICRKGDNEELLLLCDGCDKGCHTYCHRPKITTIPDGDWFCPACIAKA [Q9M] | -0.096 ± 0.14
KSIMKVYCNICRKGDNEELLLLCDGCDKGCHTYCHRPKITTIPDGDWFCPACIAKA [Q9N] | -0.041 ± 0.12
KSIMKVYCPICRKGDNEELLLLCDGCDKGCHTYCHRPKITTIPDGDWFCPACIAKA [Q9P] | 0.004 ± 0.11
KSIMKVYCRICRKGDNEELLLLCDGCDKGCHTYCHRPKITTIPDGDWFCPACIAKA [Q9R] | -0.195 ± 0.063
